Substitutions are numbered along the chain they refer to. Names may count otherwise.
B1: 847.10C9 (antibody, V domains shown)
VH: EVQLQQSGAELVRPGTSVKVSCKASEYAFNNYMMEWVKQRPGQGLEWIGVINPGSGATNYNENFKDKATLTADKSSTTAYMQLSSLTSDDSAVYFCTYNDLGYWGQGTLVTVSA
VL: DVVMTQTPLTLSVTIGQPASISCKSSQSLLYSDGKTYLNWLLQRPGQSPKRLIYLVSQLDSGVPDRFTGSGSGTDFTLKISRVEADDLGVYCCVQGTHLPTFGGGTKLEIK
B2: 13G4.2F8 (antibody, human IgG4 S228P, kappa, V domains shown)
VH: QVQLQQPGAELVKPGASVKLSCKASGYTFTSYWMHWVKQRPGQGLEWIGMIHPNSGSTDYNEKFKNKATLNVDKSSSTAYIQLSSLTSEDSAVYYCTRWGIYYYARDYWGQGTTLTVSS
VL: DIVMTQSQKFMSTSVGERVSITCKASQNVGTNVAWYQQKAGQSLELLIYGASNRHTGVPDRFTGSGSGTDFTLTITNVQSEDMTNYFCEQYSNFPLTFGAGTKLELKR
B3: 847.4D3 (antibody, V domains shown)
VH: EVQLVESGGGLVKPGGSLKLSCAASGFTFSSYAMSWVRQTPEKRLEWVASISSGDSPYYPDSVKGRFTISRDNARNILYLQMSSLRSEDTAMYYCTRFTTVVEMDYWGQGTSVTVSS
VL: DVVMTQTPKFLPITAEDRVTITCKASQSVSNEVAWYQQKPGQSPKLLIYYASNRYTGVPDRFTGSGSGTDFTFTIRSVQLEDLAVYFCQQHYSSPWTFGGGTKLEIK
B4: 847.2B8 (antibody, V domains shown)
VH: QVQLKQSGPGLVQPSQSLSITCTVSGFSLINYGVHWVRQSPGKGLEWLGVIWSGGSTDYNAAFISRLSISKDNSKSQVFFKMNSLQADDTAIYYCARIYYYGRGYAMDYWGQGTSVTVSS
VL: QILLSQSPAILSASPGEKVTMTCRASSSVTYMYWYQQKPGSSPQPWIYATSNLASGVPARFSGSGSGTSYSLTISRVEAEDAATYYCQQWSSNPLTFGAGTKLELK
B5: 847.15H11 (antibody, V domains shown)
VH: EVQLQQSGAEVVKPGAPVKLSCKASGYTFNNYWLNWVKQRPGRGLEWIGRIDPSDSETHYNQKFKDKATLTVDMSSSTAYIQLSSLTSEDSAVYYCARGDYYYGTRGPMDYWGQGTSVTVSS
VL: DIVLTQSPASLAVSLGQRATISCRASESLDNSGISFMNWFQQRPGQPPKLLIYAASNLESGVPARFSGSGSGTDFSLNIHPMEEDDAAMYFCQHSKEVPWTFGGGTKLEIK
B6: 849.1D2 (antibody, V domains shown)
VH: QVQLKESGPVLVAPSQSLSITCTVSGFSLSSYGVHWVRQPPGKGLEWLGVIWAGGSTDYDSALMSRLSISKDNSKSQVFLKMDSLQTDDTAMYYCAKPPYDYDGAWFAYWGQGTLVTVSA
VL: DVVMTQTPKFLLVSAGDRVTITCKASQSVSSDVAWYQQKPGQSPKLLIYFASNRYTGVPDRFTGSGYGTDFTFTISTVQAEDLAVYFCQHNYISPFTFGGGTKLEIK
B7: 847.12C4 (antibody, V domains shown)
VH: QVQLKESGPDLVQPSQTLSLTCTVSGFSLTIYGVHWVRQPPGKGLEWVGTVAWDDKKYYNSPLQSRLSISRDTSKNQVFLKLSSLQTEDTAMYYCTMTGGPINYWGPGTSVTVSS
VL: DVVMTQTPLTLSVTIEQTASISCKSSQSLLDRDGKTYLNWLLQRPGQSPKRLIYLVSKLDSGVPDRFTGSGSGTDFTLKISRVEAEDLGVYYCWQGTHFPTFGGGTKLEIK
B8: F846C.1F5 (antibody, human IgG4 S228P, kappa, V domains shown)
VH: QIQLVQSGPELKKPGETVKISCKASGYTFTNYGMNWVKQAPGKGLKWMGWINTYTGEPSYADDFKGRFAFSLETSASTAYLQINNLKNEDMATYFCARWGGYDGDYYAMDYWGQGTSVTVSS
VL: NIMMTQSPSSLAVSAGEKVTMSCKSSQSVLYSSNQKNYLAWYQQKPGQSPKLLIYWASTRESGVPDRFTGSGSGTDFTLTISSVQPEDLAVYYCHQYLSSLTFGAGTKLELKR
B9: F846C.2H3 (antibody, human IgG4 S228P, kappa, V domains shown)
VH: B8 VH
VL: B8 VL
B10: F846C.1H12 (antibody, human IgG4 S228P, kappa, V domains shown)
VH: B8 VH with Y32F, M91I, D103A
VL: B8 VL with E17Q, N34S, T69S
B11: F846TC.16B5 (antibody, human IgG4 S228P, kappa, V domains shown)
VH: B8 VH with S59A
VL: B8 VL with P86A
B12: F846C.1B2 (antibody, human IgG4 S228P, kappa, V domains shown)
VH: B8 VH with D103A, Y111F
VL: B8 VL with M3W, M4L, K18M, S22T, T78S, P86A
B13: 9H2.2H10 (antibody, human IgG4 S228P, kappa, V domains shown)
VH: QVQLQQPGAELVGPGSSVKLSCKASGYTFTNYWIHWVKQRPLQGLEWIGNIDPSDSETHYNQKFKDKATLTVDKSSSTAYMQLSSLTSEDSAVYYCARHGYYDYWGQGTTLTVSS
VL: DIVMTQSHKFMSTSVGDRVSITCKASQDVSTAVAWYQQKPGQSPKLLIYWASTRHTGVPDRFTGSGSGTDYTLTISSVQAEDLALYYCQQHYTTPLTFGAGTKLELKR
B14: 849.4B2 (antibody, V domains shown)
VH: DGKLQESGPGLVKPSQSLSLTCSVTGYSITSGYYWNWIRQFPGNKLEWMGHISYDGRNNYNPSLKNRISITRDTSKNQFFLKLNSVTTEDTATYYCAGYDFLWYFDVWGTGTTVTVSS
VL: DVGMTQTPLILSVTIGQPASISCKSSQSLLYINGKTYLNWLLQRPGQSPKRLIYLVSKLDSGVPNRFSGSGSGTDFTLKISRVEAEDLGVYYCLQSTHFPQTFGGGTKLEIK
B15: 847.20H7 (antibody, V domains shown)
VH: QVQLQQSGAELVRPGASVNLSCKASGYTFTNYWMNWVKQRPGQGLEWVGMIDPSDSETHYNQMFKDKATLTIDKSSSIAYMQLSSLTSEDSAVYYCARWGAMDYWGQGTSVTVSS
VL: DIVMTQSHKIMSTSVGDRVSITCKASQDVSTTVAWFQQKPGQSPKLLLYWASTRHTGVPDRFTGSGSGTDYTLTISSVQAEDLALYYCQQHYSPPFTFGSGTKLEIK
B16: 846.2B11 (antibody, human IgG4 S228P, kappa, V domains shown)
VH: QVQLQQSGPELVRPGALVKISCKASGYTFTSYDINWVKQRPGQGLEWIGWIYPGDGSTKYNEKFKGKATLTADKSSSTAYMQLSSLTSENSAVYFCAREAASNAMDYWGQGTSVTVSS
VL: DIVLTQSPASLGVSLGQRATISCRASKSVSTSGYSYMHWYQQKPGQPPKLLIYLASILESGVPARFSGSGSGTDFTLNIHPVEEEDAAIYYCQHSRELPLTFGAGTKLELKR
B17: 847.15D12 (antibody, V domains shown)
VH: QVQLQQSGAELMKPGASVKISCKATGYTFTNYWIEWVKQRPGHGLEWIGEFLPGDGSSHYNEKFKGKATFTSDTSSNTAYIHLTSLTSEDSAVYYCVRDDYDSDYWAQGTTLTVSS
VL: QAVVTQESALTTSPGETVTLTCRSSTGAVTTSNYANWVQEKPDHLFTGLIGGTNNRAPGVPARFSGSLIGDKAALTITGAQTEDEAIYFCALWYSNHLVFGGGTKLTVL
B18: 847.11D6 (antibody, V domains shown)
VH: EVKLQQSGPELMKPGTSMKISCKASGYSFTGYTMNWVKQSHGKNLEWIGLINPYNGGTNYNQKFRGKATLSVDKSSNTAYMELLSLTSEDSAVYYCARKDDYYGSSPYALDYWGQGTSVTVSS
VL: DIVMTQSPASLAVSLGQRATISCRASESVENHVNSFMHWFQQKPGQPPKLLIYRASNLQSGIPARFSGSGSRTDFTLTINPVEADDVATYYCQQNNEVPYTFGGGTKLEIK
B19: 847.28D1 (antibody, V domains shown)
VH: QVQLVETGPGLVAPSQSLSITCTVSGFSLTSYGVHWIRQSPGKGLEWLGTIWAGGSTDYNSPLMSRLSISKDNSKNQVFLKMNSLQIDDTAIYYCASPPSGYDYDVFASWGQGTLVTVSA
VL: DIRMTQSPASLSASVGETVTITCRASGNIHNYLAWYHQKQGKSPQLLVYNVKTLADGVPSRFSGSGSGTQFSLKINSLQPEDFGTYYCQHFWSIFPTFGGGTKLEIK
B20: 847.3B3 (antibody, V domains shown)
VH: B19 VH with V5K, T7S, S40P, T50G, S70T, N76S, I87S, I92M, S109Y
VL: B19 VL with R3L, H37Q, N50S, V51A, N76D, I94L
B21: 849.4F12 (antibody, V domains shown)
VH: QVQLKESGPGILQPSQTLSLTCSFSGFSLSTFGMGVGWIRQPSGKGLEWLAHIWWDDDKHYNPALKSRLTISKDTSKNQVFLRIANVDTADNATYYCARIDYGDYVGFAYWGQGTLVTVSA
VL: DILLTQSPSSMSVSLGDTVSITCHASQGINSNIGWLQQKPGKSFKGLIYHGTNLEDGVPSRFSGSGSGADYSLTISSLESEDFADYYCVQYDQFPWTFGGGTKLEIK
B22: 847.27B9 (antibody, V domains shown)
VH: QIQLVQSGPELKKPGETVKISCKASGYTFTNYGMNWVKQAPGKGLKWMGWINTNTGEPTYAEEFKGRFAFSLETSASTAYLQINYLKNEDTATFFCARLDYDYDEDYWGQGTTLTVSS
VL: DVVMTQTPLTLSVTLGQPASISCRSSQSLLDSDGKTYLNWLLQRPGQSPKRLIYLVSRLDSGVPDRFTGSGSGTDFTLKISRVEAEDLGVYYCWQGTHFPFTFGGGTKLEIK

These binders were tested against T1, Recombinant human Gal3 (rhGal3) (TrueBinding, #QC200361) (human, UniProt P17931 2-250) (assay: cell-based or functional assay).
Wherever % inhibition of CD62L shedding is given: test concentration or dose not given here.
Wherever % inhibition of IL-6 secretion is given: test concentration or dose not given here.
Wherever % inhibition of TNFα secretion is given: test concentration or dose not given here.

Row | Binder | % inhibition of CD62L shedding [%]
1 | B1 | 150
2 | B2 | 94.3
3 | B3 | 7.5
4 | B4 | 7
5 | B5 | 39.3
6 | B6 | 130
7 | B7 | 150
8 | B8 | 76.3
9 | B9 | 93.6
10 | B10 | 100
11 | B11 | 84.2
12 | B12 | 99
13 | B13 | 67.7
14 | B14 | 6.2
15 | B15 | 63.4
16 | B16 | 8.2
17 | B17 | 15.4
18 | B18 | 83.2
19 | B19 | 110
20 | B20 | 43.4
21 | B21 | 17.9
22 | B22 | 87.9

Target: T1, Recombinant human Gal3 (rhGal3) …
Assay: cell-based or functional assay
Remark: another data set of the same source

Row | Binder | % inhibition of IL-6 secretion [%] | % inhibition of TNFα secretion [%]
23 | B1 | > -1000 | -246
24 | B2 | 55.1 | 83.2
25 | B5 | 94.7 | 100
26 | B6 | 26.8 | 37
27 | B7 | -0.7 | -5.4
28 | B8 | -16 | 51.7
29 | B9 | -49.1 | 62.8
30 | B10 | 51.8 | 95.3
31 | B11 | -204 | -11.4
32 | B12 | -9 | 43.9
33 | B13 | -99.1 | -39.2
34 | B14 | -9.8 | -162
35 | B15 | -155 | -185
36 | B16 | -0.5 | -98
37 | B17 | -71.9 | -153
38 | B18 | 22.7 | -3.1
39 | B19 | 78.6 | 80.5
40 | B20 | 72.3 | 94.3
41 | B21 | 1.2 | -81.5
42 | B22 | -84.7 | 70.1

These binders were tested against T2, human Gal3 protein (recombinant human Galectin-3) (human, UniProt P17931 2-250) (assay: SPR (Carterra LSA), antibody immobilised on HC200M chip, hGal3 injected).
T2 construct: also called hGal3; hGAL3
T2 sequence (P17931 2-250 limits assumed): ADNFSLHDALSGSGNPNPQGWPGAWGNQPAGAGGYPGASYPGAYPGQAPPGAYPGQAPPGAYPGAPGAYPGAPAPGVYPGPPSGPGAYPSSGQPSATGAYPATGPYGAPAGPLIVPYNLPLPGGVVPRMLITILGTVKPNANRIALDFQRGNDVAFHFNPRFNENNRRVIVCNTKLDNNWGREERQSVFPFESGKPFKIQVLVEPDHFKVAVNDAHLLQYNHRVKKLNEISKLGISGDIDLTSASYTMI

Row | Binder | binding result
43 | B3 | no binding
44 | B4 | no binding
45 | B14 | no binding
46 | B16 | no binding
47 | B21 | no binding
